Series [1] deals with T1, PaP3 ΔC122-TerS (Pseudomonas phage PaP3, UniProt Q8H9R5 1-121, del122-152).
T1 sequence: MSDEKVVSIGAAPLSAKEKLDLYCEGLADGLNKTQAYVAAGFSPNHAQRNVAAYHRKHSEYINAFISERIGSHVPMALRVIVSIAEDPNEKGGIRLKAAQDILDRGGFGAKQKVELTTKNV
The experiment in a line: EMSA; 0.15 uM cos DNA on agarose, also 4-16% acrylamide; comparable to WT; EMSA: incubation 37 C 30 min (binding buffer not stated; proteins in GF buffer 20 mM Tris-HCl pH 7.5, 150 mM NaCl, 5 mM bME, 2.5% glycerol); 1% agarose or 4-16% acrylamide gel, 0.5x TBE, 4 C. As to conditions: protein: recombinant; tags: GST removed by PreScission protease; chain copies: 9; label: 5' Cy3 on both strands; blunt. (In general: Mobility shift assays separate free from complexed probe on a gel.)

The target in series [2] is T1, PaP3 ΔC122-TerS. In words: EMSA; 4-16% acrylamide; stronger than WT on scr; EMSA: incubation 37 C 30 min (binding buffer not stated; proteins in GF buffer 20 mM Tris-HCl pH 7.5, 150 mM NaCl, 5 mM bME, 2.5% glycerol); 1% agarose or 4-16% acrylamide gel, 0.5x TBE, 4 C. The conditions noted are these: protein: recombinant; tags: GST removed by PreScission protease; chain copies: 9; label: 5' Cy3; blunt.

B1: Cy3-cos (dsDNA)
DNA 1: GCCGGCCCCTTTCCGCGTTA
DNA 2: TAACGCGGAAAGGGGCCGGC
Consider B1, for which the binding result in series [1] was “binds”.

B2: Cy3-scr (dsDNA)
DNA 1: GCACTGCAGTAACTTGTCAGTCAT
DNA 2: ATGACTGACAAGTTACTGCAGTGC
B2: the binding result in series [2] is on record as “binds”.

The values are drawn from paper PMC7672466, “Biophysical analysis of Pseudomonas-phage PaP3 small terminase suggests a mechanism for sequence-specific DNA-binding by lateral interdigitation”.
